In paper PMC4786922, “Protein Delivery of an Artificial Transcription Factor Restores Widespread Ube3a Expression in an Angelman Syndrome Mouse Brain”:

Target: TAT-S1 (MBP-TAT-mCherry-HA-NLS-S1-KRAB) (artificial (designed))
Assay: EMSA; EMSA: ZBA buffer (composition not given), 0.05% NP-40, 0.1 mg/ml BSA, 10% glycerol, 35-75 pM target, 1.5 h at room temperature; pH not given
Conditions: protein: recombinant, tags: N-terminal MBP, TAT(48-57), SV40 NLS, C-terminal KRAB, label: 5'-biotin on strand 1, blunt

B1: S1 target site EMSA probe (dsDNA)
DNA 1: CCTCTTCGCTATTACGCCAGCCATGCGTAGGGAGCCGCGGAACGTTCGATCGTACTCGAGTCAGGGTG
DNA 2: CACCCTGACTCGAGTACGATCGAACGTTCCGCGGCTCCCTACGCATGGCTGGCGTAATAGCGAAGAGG
  Kd: 8 ± 1.5 nM
